For assay [1], the target named is ProG-TGT (Protein G fragment, amino acids 190-384, conjugated to a double-stranded DNA tension gauge tether with biotin) (UniProt P19909). In words: micro-ring resonator; 200 ug/ml neutravidin, 0.05 uM ProG-TGT and 50 ug/ml Ecad-Fc flowed successively over a polymer-passivated surface presenting biotin; ProG-TGT held through biotin:neutravidin; film thickness read out.

The target of assay [2] is Ecad-Fc (recombinant human epithelial cadherin fused with IgG-Fc).

As to “Ecad-Fc (recombinant human epithelial cadherin fused with IgG-Fc) (Fc fusion)”, in assay [1], the film thickness increase was 237 pm and the stoichiometry N (Ecad-Fc per ProG-TGT (molar ratio)) turned out to be 0.87.
For the substance “E-cadherin on DLD-1 cells (from UniProt P12830 155-882) (receptor)”, the surface density of adhered DLD-1 cells on the ProG-TGT (43 pN) surface with Ecad-Fc (control surface without Ecad-Fc: 8/mm^2) in assay [2] was 386 /mm^2.

For the origin of these results see article PMC4753514.
